{"source": "IntAct's records for PubMed 20010697", "parents": {"B1": {"name": "Zinc finger protein ZFPM1 (Mus musculus), O35615 (parent)", "chain": "MSRRKQSNPRQIKRSLRDMEAGEEAKAMDSSPKEQEAPDPEAPAIEEPPSPPREDVSPPAVPAPPESPEDPEDMEGQELEMRPQDEEKEEKEEEAAMASPWSGPEELELALQDGQRCVRARLSLTEGLSWGPFYGSIQTRALSPEREEPGPAVTLMVDESCWLRMLPQVLTEEAANSEIYRKDDALWCRVTKVVPSGGLLYVRLVTEPHGAPRHPVQEPVEPGGLAPVHTDIQLLPQQAGMASILATAVINKDVFPCKDCGIWYRSERNLQAHLLYYCASRQRAGSPVSATEEKPKETYPNERVCPFPQCRKSCPSASSLEIHMRSHSGERPFVCLICLSAFTTKANCERHLKVHTDTLSGVCHNCGFISTTRDILYSHLVTNHMVCQPGSKGEIYSPGAGHPAAKLPPDSLAGFQQHSLMHSPLVPADKAPTPSSGLDSKAEVTNGETRVPPQNGGSSESPAAPRTIKVEAAEEPEATRASGPGEPGPQAPSRTPSPHSPNPVRVKTELSSPTPGSSPGPGELTMAGTLFLPQYVFSPDAGTTTVPTAPQASEILAKMSELVHNRLQQGAGSSGAAGTPTGLFSGTKGATCFECEITFNNINNFYVHKRLYCSGRRAPEDPPTVRRPKAATGPARAPAGAAAEPDPSRSSPGPGPREEEASGTTTPEAEAAGRGSEGSQSPGSSVDDAEDDPSRTLCEACNIRFSRHETYTVHKRYYCASRHDPPPRRPPAPTTAPGPAAPALTAPPVRTRRRRKLYELPAAGAPPPAAGPAPVPVVPSPTAELPSSPRPGSASAGPAPALSPSPVPDGPIDLSKRPRRQSPDAPTALPALADYHECTACRVSFHSLEAYLAHKKYSCPAAPLRTTALCPYCPPNGRVRGDLVEHLRQAHGLQVAKPAASPGAEPRTPAERAPRDSPDGRAPRSPSPAPENTPSDPADQGARTPSKGPPAPAPAPGGGGGHRYCRLCNIRFSSLSTFIAHKKYYCSSHAAEHVK", "partner": "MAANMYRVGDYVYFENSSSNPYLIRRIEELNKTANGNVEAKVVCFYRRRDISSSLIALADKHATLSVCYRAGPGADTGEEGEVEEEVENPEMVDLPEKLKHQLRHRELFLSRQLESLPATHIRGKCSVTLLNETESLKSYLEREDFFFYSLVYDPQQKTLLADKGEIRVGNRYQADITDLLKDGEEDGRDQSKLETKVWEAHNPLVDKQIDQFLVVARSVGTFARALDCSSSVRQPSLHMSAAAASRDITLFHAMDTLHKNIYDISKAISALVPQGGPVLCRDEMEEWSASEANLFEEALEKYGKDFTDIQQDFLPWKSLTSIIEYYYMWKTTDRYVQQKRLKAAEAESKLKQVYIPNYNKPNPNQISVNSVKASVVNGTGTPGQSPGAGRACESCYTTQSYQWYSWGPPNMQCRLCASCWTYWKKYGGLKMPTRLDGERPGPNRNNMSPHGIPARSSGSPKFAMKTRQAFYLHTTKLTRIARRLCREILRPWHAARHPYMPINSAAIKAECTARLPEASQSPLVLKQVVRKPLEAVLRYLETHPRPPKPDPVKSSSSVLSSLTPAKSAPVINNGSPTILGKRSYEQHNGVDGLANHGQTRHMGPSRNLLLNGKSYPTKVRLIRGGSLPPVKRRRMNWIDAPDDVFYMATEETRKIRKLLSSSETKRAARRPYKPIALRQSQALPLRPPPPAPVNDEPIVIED"}}}
{"variants_of": "B1", "details": "with mta1_rat Mta1, Q62599"}
{"variant": "K5A", "effect of a mutation on the interaction": "disrupting interaction"}
{"variant": "R3A", "effect of a mutation on the interaction": "disrupting interaction"}
